According to paper PMC12721328, “DNA extrusion size determines pathway choice during CAG repeat expansion”:

Target: MSH2 (MutSβ subunit);MSH3 (MutSβ subunit) (human;human, UniProt P43246;P20585 1-934;1-1137, |)
Experiment: SPR; 10 mM Mg2+; FAN1 SPR: 20 mM Tris-HCl pH 7.6, 70 mM NaCl, 10 mM CaCl2, 1 mM EDTA, 0.01% P-20, 1 mM DTT, 0.05 mg/ml BSA, 5°C; MutSβ SPR: 10 mM Tris-HCl pH 7.6, 150 mM NaCl, 10 mM MgCl2, 1 mM EDTA, 1 mM DTT, 0.005% P-20 (samples held at 10°C)
Conditions: protein: recombinant;recombinant, tags: ;, copies: 1;1, label: 5'-biotin on strand 1, 5'-digoxigenin on strand 2, blunt

B1: (CAG)1 extrusion mr78 (dsDNA)
DNA 1: CGAATTTCTAGACTCGAGATCAGCTGCTAGGTCGAGTCTAGAG
DNA 2: CTCTAGACTCGACCTAGCAGATCTCGAGTCTAGAAATTCG
Central 3-nt extrusion in strand 1, 20 bp each side
  Kd: 0.5 ± 0.1 nM

B2: (CAG)3 extrusion mr78 (dsDNA)
DNA 1: CGAATTTCTAGACTCGAGATCAGCAGCAGCTGCTAGGTCGAGTCTAGAG
DNA 2: CTCTAGACTCGACCTAGCAGATCTCGAGTCTAGAAATTCG
Central 9-nt extrusion in strand 1, 20 bp each side
  Kd: 1.2 ± 0.4 nM

B3: (CAG)13 extrusion mr78 (dsDNA)
DNA 1: CGAATTTCTAGACTCGAGATCAGCAGCAGCAGCAGCAGCAGCAGCAGCAGCAGCAGCAGCTGCTAGGTCGAGTCTAGAG
DNA 2: CTCTAGACTCGACCTAGCAGATCTCGAGTCTAGAAATTCG
Central 39-nt extrusion in strand 1, 20 bp each side
  Kd: 4.2 ± 1.5 nM

B4: (CAG)2 extrusion mr78 (dsDNA)
DNA 1: CGAATTTCTAGACTCGAGATCAGCAGCTGCTAGGTCGAGTCTAGAG
DNA 2: CTCTAGACTCGACCTAGCAGATCTCGAGTCTAGAAATTCG
Central 6-nt extrusion in strand 1, 20 bp each side
  Kd: 0.5 ± 0.16 nM
